Results reported in publication doi:10.1101/2024.08.28.610080.

Legend:
Test in all cases: EMSA
[1] = biological target: POLγA WT (human, UniProt P54098 26-1239)
[2] = biological target: POLγA WT;POLγB (processivity subunit, B2) (human;human, UniProt P54098;Q9UHN1 26-1239;26-485, |)
[3] = biological target: POLγA Y951N;POLγB (processivity subunit, B2) (human;human, UniProt P54098;Q9UHN1 26-1239;26-485, Y951N|)
[4] = biological target: POLγA Y951N (human, UniProt P54098 26-1239, Y951N)

Measured: binding result

POLγA Y951N;POLγB (processivity subunit, B2), sequence (P54098 26-1239 Y951N, chain 1 of 2): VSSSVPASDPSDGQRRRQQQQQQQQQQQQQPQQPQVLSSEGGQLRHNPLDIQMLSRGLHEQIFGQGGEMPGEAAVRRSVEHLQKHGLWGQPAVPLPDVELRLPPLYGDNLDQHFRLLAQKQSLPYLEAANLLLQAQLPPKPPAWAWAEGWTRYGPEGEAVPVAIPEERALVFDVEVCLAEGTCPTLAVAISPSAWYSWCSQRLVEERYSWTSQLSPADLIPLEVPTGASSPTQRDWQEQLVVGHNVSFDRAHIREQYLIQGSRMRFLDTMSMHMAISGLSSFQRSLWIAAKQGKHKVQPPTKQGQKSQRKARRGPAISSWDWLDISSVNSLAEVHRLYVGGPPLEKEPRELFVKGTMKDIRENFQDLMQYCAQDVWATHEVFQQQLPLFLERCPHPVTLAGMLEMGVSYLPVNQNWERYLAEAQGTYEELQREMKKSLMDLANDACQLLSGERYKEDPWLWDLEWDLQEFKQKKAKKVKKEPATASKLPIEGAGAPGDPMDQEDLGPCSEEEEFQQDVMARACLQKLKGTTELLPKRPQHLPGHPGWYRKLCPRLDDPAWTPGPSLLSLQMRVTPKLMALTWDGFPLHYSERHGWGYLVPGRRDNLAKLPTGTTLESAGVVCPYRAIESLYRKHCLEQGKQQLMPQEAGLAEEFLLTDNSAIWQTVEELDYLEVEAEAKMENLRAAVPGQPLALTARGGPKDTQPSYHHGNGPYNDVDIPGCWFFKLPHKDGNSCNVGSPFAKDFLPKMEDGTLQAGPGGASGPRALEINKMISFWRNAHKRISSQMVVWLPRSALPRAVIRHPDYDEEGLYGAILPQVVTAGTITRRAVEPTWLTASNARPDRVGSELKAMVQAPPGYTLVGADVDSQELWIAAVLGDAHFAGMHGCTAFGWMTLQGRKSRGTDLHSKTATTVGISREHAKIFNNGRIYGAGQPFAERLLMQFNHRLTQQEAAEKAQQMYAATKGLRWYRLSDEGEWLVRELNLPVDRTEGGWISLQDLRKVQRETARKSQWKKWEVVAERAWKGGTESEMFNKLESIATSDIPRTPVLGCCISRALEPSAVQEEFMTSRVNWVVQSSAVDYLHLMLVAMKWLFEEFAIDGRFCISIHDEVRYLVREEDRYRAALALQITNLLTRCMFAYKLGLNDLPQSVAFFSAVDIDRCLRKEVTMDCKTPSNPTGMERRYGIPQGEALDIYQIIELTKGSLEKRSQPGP
POLγA Y951N;POLγB (processivity subunit, B2), sequence (Q9UHN1 26-485, chain 2 of 2): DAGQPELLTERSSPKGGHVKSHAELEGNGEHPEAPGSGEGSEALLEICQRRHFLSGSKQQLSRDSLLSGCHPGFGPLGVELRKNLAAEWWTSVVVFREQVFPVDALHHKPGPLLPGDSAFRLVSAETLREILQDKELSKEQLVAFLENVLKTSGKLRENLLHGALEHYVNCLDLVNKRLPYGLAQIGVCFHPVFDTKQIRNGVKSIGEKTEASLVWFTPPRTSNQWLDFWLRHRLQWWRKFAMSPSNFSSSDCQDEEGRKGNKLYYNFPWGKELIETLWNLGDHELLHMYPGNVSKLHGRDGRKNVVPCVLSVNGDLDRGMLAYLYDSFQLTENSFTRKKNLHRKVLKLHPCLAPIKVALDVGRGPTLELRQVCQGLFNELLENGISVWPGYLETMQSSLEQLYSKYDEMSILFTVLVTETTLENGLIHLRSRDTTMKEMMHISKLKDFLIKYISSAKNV
POLγA Y951N, sequence (P54098 26-1239 Y951N): as the sequence (P54098 26-1239 Y951N, chain 1 of 2) above
POLγA WT;POLγB (processivity subunit, B2), sequence (P54098 26-1239, chain 1 of 2): as the sequence (P54098 26-1239 Y951N, chain 1 of 2) above, with N926Y counted along it
POLγA WT;POLγB (processivity subunit, B2), sequence (Q9UHN1 26-485, chain 2 of 2): as the sequence (Q9UHN1 26-485, chain 2 of 2) above
POLγA WT, sequence (P54098 26-1239): as the sequence (P54098 26-1239 Y951N, chain 1 of 2) above, with N926Y counted along it

B1: 25/40 nt TET-ddC primer/template (EMSA) (dsDNA)
DNA 1: GCAGTGAATTTCTGCAGGTCGACTC
DNA 2: GCGGGTTGACCTTTGGAGTCGACCTGCAGAAATTCACTGC
modifications: 3'-ddC on both strands
binds: all assays above
